{"source": "paper PMC2191257", "binders": {"B1": {"name": "MSV LTR (dsDNA)", "DNA 1": "TCGGAGACGGAAGCGCGC", "DNA 2": "GCGCGCTTCCGTCTCCGA"}}, "target": "t-Elf-1 (truncated Elf-1) (UniProt P32519 108-304)", "sequence (P32519 108-304)": "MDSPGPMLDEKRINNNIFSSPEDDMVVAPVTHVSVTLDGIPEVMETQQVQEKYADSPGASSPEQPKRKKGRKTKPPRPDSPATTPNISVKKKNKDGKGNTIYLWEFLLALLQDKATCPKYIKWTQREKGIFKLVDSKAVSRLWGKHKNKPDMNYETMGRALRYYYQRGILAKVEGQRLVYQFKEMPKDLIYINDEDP", "experiment": "EMSA", "data": [{"binder": "B1", "values": [{"measurement": "binding result", "value": "binds"}]}]}
